Here are results for four molecules from US20080242594A1, “Methods for Promoting Stem Cell Proliferation and Survival” (priority 2005, published 2008).

“Also recorded” adds a separate entry of the source. Where only a bound is given, the exact number is not on record here.

One test deals with STAT3. Nature of the test: STAT3 phosphorylation (Ser727, Tyr705) immunoblot in CNS stem cells. The format is cell-based, mouse. Particulars: for effect on STAT3-Ser727 phosphorylation following Notch activation: Notch ligand treated CNS stem cells. An excerpt:
Ligands that activate JAK/STAT signaling promote astrocytic differentiation of CNS stem cells (Johe et al., Genes Dev 10:3129-40, 1996; Raj an et al., J Neurosci 18:3620-9, 1998; Bonni et al., Science 278:477-83, 1997; Song et al., Nat Neurosci 7:229-35, 2004; He et al., Nat Neurosci 8:616-625, 2005). When applying CNTF to CNS stem cells it was noted that low concentrations of CNTF stimulated survival but not expression of astrocyte specific genes. This is consistent with previous observations of Akt phosphorylation downstream of gp130 activation (Taga et al., Annu Rev Immunol 15:797-819, 1997). […] At high concentrations (20 ng/ml) the phosphorylation of Tyr705 can be blocked by an inhibitor of JAK while allowing a CNTF-induced increase in Ser727 phosphorylation (FIG. 2B) (Thompson et al., Bioorg Med Chem Lett 12:1219-23, 2002).
CNTF was used as a positive control; CNTF, induced the phosphorylation on both sites. With both CNTF and Notch activation, phosphorylation peaked at around 30 min. STAT3 phosphorylation on Ser727 following Notch activation was sensitive to the γ-secretase inhibitor DAPT (FIG. 2e). […] In contrast to CNTF, no Tyr705 phosphorylation was detected at any of the doses of Notch receptor ligands.
It was determined that insulin also maintains phosphorylation of serine 727 in STAT3 in foetal neural stem cell cultures.
Background: In western blotting, separated proteins are transferred to a membrane and probed.

A further test deals with Notch1. Nature of the test: Notch activation (Notch1IC / Notch ICD) immunocytochemical detection. The test is classed as cell-based, mouse. As to conditions: Notch ligands 1 hour. An excerpt: Antibodies were used that specifically bind: Notch1IC (Chemicon, 5352), GFP (Molecular Probes, A11122), Oct3/4 (Santa Cruz, sc-5279), SSEA1 and SSEA4 (Developmental Studies HybridomaBank), Tra-1-60 (Chemicon, MAB4360), Tra-1-81 (Chemicon, MAB4381), human nestin (Chemicon, MAB5326), Sox-1 (Gift from Dr. R Lovell-Badge), TH (Pel-Freez, P40101-0), Tuj1 (Covance, MMS-435P), rat nestin (McKay Lab), GFAP (Dako, z0334), CNPase (Chemicon, MAB326), BrdU (Accurate, H5903), DCX (Santa Cruz, sc-8066), Sox2 (R&D, MAB2018), Hu (Molecular Probes, A21271).
To assay for Notch activation, cultures were treated with the Notch ligands for 1 hour and Notch1 activation was detected by immunocytochemical staining of Notch1IC (FIG. 1b).
It was determined that insulin facilitates Notch cleavage using immunocytochemical detection.

For a further test, the system named is Hes3. Put plainly: Hes3 expression (RT-PCR, immunohistochemistry) in CNS stem cells. The format is cell-based, mouse. Particulars: for effect on Jagged-induced Hes3 mRNA induction: CNTF at high concentrations (>1 ng/ml). The procedure: RT-PCR: For reverse-transcriptase PCR analysis, RNA was extracted from cell cultures or brain homogenates with Trizol (Invitrogen, 15596-026), and PCR reactions were performed with the ProSTAR First-Strand RT-PCR Kit (Stratagene, 200420). Primers were used for the following genes: Hes1, Hes2, Hes3, Hes5, Hes6, Hey2; Hes7
Notch signaling regulates transcription of the Hes/Hey gene family, a group of genes implicated in the control of differentiation (Iso et al., J Cell Physiol 194:237-55, 2003). RT-PCR was used to assess mRNA regulation of these genes one hour after Notch activation in CNS stem cells. […] The ability of high concentrations of CNTF to inhibit Hes3 induction following Notch activation was dependent on JAK activity (FIG. 4e). In contrast, in the absence of added Notch ligand, Hes3 mRNA levels were elevated by high CNTF and the JAK inhibitor (FIG. 4e).
Conversely, treatment with ciliary neurotrophic factor (CNTF), a cytokine that opposes the signal transduction pathway downstream of Notch activation opposed the ability of D114 to induce Hes3 transcription. Immunohistochemical experiments were performed that documented D114, CNTF regulate Hes3 expression. Thus, at the protein expression level, D114 maintains and CNTF inhibits Hes3 expression.

The test system of test [1] is E13.5 cortical embryonic mouse CNS stem cells. Nature of the test: CNS stem cell plating efficiency / colony formation / survival. The test is classed as cell-based. As to conditions: 5 days, versus FGF2 control; CNTF low 0.01, 0.1 ng/ml or high 20 ng/ml with JAK inhibitor. Here is the method: Cell culture: E13.5 cortical embryonic mouse and adult rat subventricular zone CNS stem cells were grown as previously described (Johe et al., Genes Dev 10:3129-40, 1996; Rajan et al., J Neurosci 18:3620-9, 1998). Cells were expanded in serum-free DMEM/F12 medium with N2 supplement with FGF2 (20 ng/ml) for 5 days and were re-plated at 1000-10,000 cells per cm^2. FGF2 was included throughout our experiments, unless otherwise stated.
To explore these paradoxical observations, CNS stem cell cultures from mid-gestation (embryonic day 13.5) mouse dorsal telencephalon were treated with soluble Notch ligands. […] Following initial passaging, the cells were plated at a density of 1000 cells/cm^2, cultured for 5 days in the presence of FGF2, and colony numbers, sizes, and BrdU incorporation (after a 4 hour BrdU pulse) were enumerated. Notch activation by Jagged-1 or Delta-4 (200 ng/ml) increased the number of colonies generated in vitro by over 3-fold (FIG. 1a). […] The effects of Notch activation were most dramatic when treatments were initiated at the start of the culture.
Insulin in the medium is also thought to promote cell survival. […] Seeding cells in the absence of insulin caused the plating efficiency measured at five days to drop to 29.9%±37.9 (FIG. 1e). Delta-4 was able to compensate for the lack of insulin in the medium, and restored plating efficiency (125%±19.4). Because Notch activation improved survival, activation of Akt, a ser/threonine kinase known to be involved in cell survival, was assayed. Notch activation rapidly (5 minutes) promoted the phosphorylation of Akt on Ser473 and […] in both the presence and absence of insulin (FIG. 1f).

For another test, the system named is nucleostemin, SHH. Nature of the test: Nucleostemin and SHH protein expression in CNS stem cells. The format is cell-based, mouse. The text has this: The interest in stem cell self-renewal mechanisms prompted analysis of potential down-stream components of the Notch/STAT3-Ser727 (Notch/sSTAT) pathway. Nucleostemin is a p53-binding protein expressed in self-renewing CNS stem cells and cancer cells (Tsai et al., J Neurosci 20:3725-35, 2000; Tsai et al., J Cell Biol 168:179-84, 2005). Sonic Hedgehog (SHH) is a protein with functions in fate specification and stem cell survival in the fetal and adult CNS (Palma et al., Development 132:335-44, 2005).
There are two forms of mRNA encoded by the Hes3 gene, Hes3a and Hes3b.

For `CN(C)S(=O)(=O)c1ccc2c(c1)/C(=C/c1cc3c([nH]1)CCCC3)C(=O)N2` [SU6656, reference compound], the “effect on STAT3-Ser727 phosphorylation following Notch activation” value in the test on STAT3 is “blocked”.

With `C[C@H](NC(=O)Cc1cc(F)cc(F)c1)C(=O)N[C@H](C(=O)OC(C)(C)C)c1ccccc1` [DAPT, reference compound], in the test with STAT3, the “basal levels of pSer727” value was “reduced the basal levels of pSer727” and the “effect on STAT3-Ser727 phosphorylation following Notch activation” value is “blocked”. The “accumulation of Notch1IC” value with Notch1 is “blocks the accumulation of Notch1IC”. For the same molecule, in the test with Hes3, the “effect on Jagged-induced Hes3 mRNA induction” value is “inhibited Hes3 induction by Jagged1”.

Take `COc1ccc(S(=O)(=O)Nc2ccccc2CN(C)C/C=C/c2ccc(Cl)cc2)cc1` [KN92, reference compound]: the “effect on STAT3-Ser727 phosphorylation following Notch activation” value with STAT3 is listed as “no effect”.

B1: CNTF: cilliary neurotrophic factor, CNTF (577-NT) from R&D (protein, UniProt P26441 1-200, looked up)
Ciliary neurotrophic factor: MAFTEHSPLTPHRRDLCSRSIWLARKIRSDLTALTESYVKHQGLNKNINLDSADGMPVASTDQWSELTEAERLQENLQAYRTFHVLLARLLEDQQVHFTPTEGDFHQAIHTLLLQVAAFAYQIEELMILLEYKIPRNEADGMPINVGDGGLFEKKLWGLKVLQELSQWTVRSIHDLRFISSHQTGIPARGSHYIANNKKM
In the case of B1, the “CNS stem cell survival / plating efficiency” value in test [1] is reported as “increased survival; also recorded: support CNS stem cell survival”. Besides, in the test with STAT3, the “time of peak STAT3 phosphorylation” value is “around 30 min”. For the same molecule, in the test on STAT3 (dose response, 30 minutes), the “concentration at which phosphorylation of STAT3 on Tyr705 occurs” value is above 1 ng/mL and the “concentration inducing phosphorylation of STAT3 on Ser727” value is below 0.5 ng/mL. For the same molecule, in the test with nucleostemin, SHH, the “nucleostemin and SHH protein expression” value is “Nucleostemin levels were also increased”. The “Hes3 mRNA levels” value with Hes3 (CNTF 20 ng/ml) is reported as “did not induce Hes3 mRNA”. Also, in the test with Hes3, the “effect on Jagged-induced Hes3 mRNA induction” value is “inhibited Hes3 induction by Jagged1”. Besides, in the test on Hes3 (immunohistochemical), the “Hes3 expression at the protein expression level” value is on record as “inhibits”.
